Laboratory results reported in paper PMC8079451, “Phosphopeptide interactions of the Nbs1 N-terminal FHA-BRCT1/2 domains” (Scientific Reports, 2021).
Square brackets hold non-standard residues; d marks the D form. Primed or numbered codes have the meaning given here. Ends that are not written are not given here. FITC′ = fluorescein isothiocyanate label; pT = C[C@@H](OP(=O)(O)O)[C@H](N)C(=O)O

Legend:
Test in all cases: fluorescence polarisation; 100 nM FITC-labeled phosphopeptide with increasing hsNbs1(384); room temperature, 15 min incubation; 25 mM HEPES pH 7.4, 150 mM NaCl, 1 mM EDTA, 2 mM DTT, 0.05% Tween20, 0.1% BSA; one-site model
Conditions in all cases: both partners purified
hsNbs1(384) K73A = biological target: T1, hsNbs1(384) K73A (human, UniProt O60934 1-384, K73A)
T1 construct: source: E. coli BL21(DE3) pLacI, purified as the wild type
T1 sequence (looked up): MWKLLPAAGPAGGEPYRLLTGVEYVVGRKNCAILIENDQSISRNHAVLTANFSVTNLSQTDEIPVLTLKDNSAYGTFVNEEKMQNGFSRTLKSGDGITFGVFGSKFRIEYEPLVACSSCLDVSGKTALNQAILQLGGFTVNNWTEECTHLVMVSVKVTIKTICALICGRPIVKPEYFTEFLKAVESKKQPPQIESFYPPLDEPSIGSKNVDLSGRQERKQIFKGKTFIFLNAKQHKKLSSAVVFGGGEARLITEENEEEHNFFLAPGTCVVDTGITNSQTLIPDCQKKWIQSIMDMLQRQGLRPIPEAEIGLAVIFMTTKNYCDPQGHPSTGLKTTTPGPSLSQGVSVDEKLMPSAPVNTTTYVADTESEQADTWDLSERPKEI

[1] = biological target: T2, hsNbs1(384), the N-terminal 384 residues of homo sapiens Nbs1 containing the FHA-BRCT1-BRCT2 domains (human, UniProt O60934 1-384)
T2 construct: gene optimised for E. coli, cloned into pET30a (NdeI/HindIII); also called wt; source: E. coli BL21(DE3) pLacI, purified (Ni-NTA, HiTrap Q, Superdex 75)
T2 sequence (looked up): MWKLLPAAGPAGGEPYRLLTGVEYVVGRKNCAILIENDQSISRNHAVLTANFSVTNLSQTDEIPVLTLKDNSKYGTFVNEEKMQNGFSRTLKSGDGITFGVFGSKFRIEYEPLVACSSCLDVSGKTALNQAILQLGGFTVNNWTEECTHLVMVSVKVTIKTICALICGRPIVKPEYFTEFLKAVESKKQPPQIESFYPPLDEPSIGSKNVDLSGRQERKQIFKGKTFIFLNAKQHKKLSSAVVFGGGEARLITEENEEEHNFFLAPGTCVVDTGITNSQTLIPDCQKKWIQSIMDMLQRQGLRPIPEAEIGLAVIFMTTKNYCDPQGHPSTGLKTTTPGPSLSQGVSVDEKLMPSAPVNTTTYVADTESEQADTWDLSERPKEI

hsNbs1(384) R43A = biological target: T3, hsNbs1(384) R43A (human, UniProt O60934 1-384, R43A)
T3 construct: source: E. coli BL21(DE3) pLacI, purified as the wild type
T3 sequence (looked up): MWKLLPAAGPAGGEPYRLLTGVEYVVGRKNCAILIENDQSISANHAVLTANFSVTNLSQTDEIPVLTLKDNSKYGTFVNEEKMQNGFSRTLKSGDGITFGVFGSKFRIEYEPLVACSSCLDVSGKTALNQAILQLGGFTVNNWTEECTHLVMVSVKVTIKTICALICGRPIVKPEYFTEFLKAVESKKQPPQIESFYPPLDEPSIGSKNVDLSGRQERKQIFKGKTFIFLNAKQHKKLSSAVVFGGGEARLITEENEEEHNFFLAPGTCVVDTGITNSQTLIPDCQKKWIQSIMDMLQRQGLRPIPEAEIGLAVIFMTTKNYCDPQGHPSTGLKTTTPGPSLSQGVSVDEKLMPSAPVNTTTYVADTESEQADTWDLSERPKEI

Kd (hsNbs1(384) K73A): 32.9 µM | Kd [1]: 20 µM | Kd (hsNbs1(384) R43A): 29.2 µM
Binder: {FITC′}-GGRYIPPN[pT]PENFWEVGFPEEQ [hsCtIP phosphopeptide R841YIPPNpTPENFWEVGFPEEQ860 with N-terminal FITC-Gly-Gly]
